Columns and labels:
[1] = molecular target: MHV M tail with truncation of 40 carboxyl-terminal amino acids (mouse hepatitis coronavirus strain A59, UniProt P04386 1-147); assay: binary yeast 2-hybrid
[2] = molecular target: MHV M cytoplasmic tail (amino acids 105-228), GAL4-BD fusion (mouse hepatitis coronavirus strain A59, UniProt P04386 1-147); assay: binary yeast 2-hybrid

Binder	binding result [1]	binding result [2]
pAD-MYO5B(ABCDE) (other, also called MYO5B ABCDE exons; construct containing just the ABCDE exons) GSPDSYSLLLNQLKLAHEELEVRKEEVLILRTQIVSADQRRLAGRNAEPNINARSSWPNSEKHVDQEDAIEAYHGVCQTNSKTEDWGYLNEDGELGLAYQGLKQVARLLEAQLQAQSLEHEEEVEHLKAQLEALKEEMDKQQQTFCQTLLLSPEAQVEFGVQQEISRLTNENLDLKELVEKLEKNERKLKKQLKIYMKKAQDLEA	no binding	
pAD-MYO5B(ABCE) (other) GSPDSYSLLLNQLKLAHEELEVRKEEVLILRTQIVSADQRRLAGRNAEPNINARSSWPNSEKHVDQEDAIEAYHGVCQTNRLLEAQLQAQSLEHEEEVEHLKAQLEALKEEMDKQQQTFCQTLLLSPEAQVEFGVQQEISRLTNENLDLKELVEKLEKNERKLKKQLKIYMKKAQDLEA		no binding

Reference: patent publication US20240000885A1 (VANDERBILT UNIVERSITY, published 2024)
